Measurements as given in article PMC10312975 (Research Square, 2023).

B1: CCDC22 DBD (280-446), untagged (domain or fragment, human, UniProt O60826 280-446, looked up)
chain: GAGAKTGAPKGSRFTHSEKFTFHLEPQAQATQVSDVPATSRRPEQVTWAAQEQELESLREQLEGVNRSIEEVEADMKTLGVSFVQAESECRHSKLSTAEREQALRLKSRAVELLPDGTANLAKLQLVVENSAQRVIHLAGQWEKHRVPLLAEYRHLRKLQDCRELES
notes: CCDC22, human, DBD; source: E. coli BL21 (DE3) T1R, purified, MBP removed with TEV; not shown: MBP, N-terminal, cleaved

What was measured:
Conditions in all cases: both partners purified
[1] = biological target: T1, DENND10, full length, His6 tag removed (human, UniProt Q8TCE6 1-357); experiment: SEC; untagged DBD dimer and DENND10, alone and mixed; Superdex 200, 100 mM NaCl, 10 mM HEPES pH 7.0, 5% glycerol, 1 mM DTT; SDS-PAGE of fractions
T1 construct: DENND10 (FAM45A), human, codon-optimised gene; source: E. coli BL21 (DE3) T1R, purified (Source 15Q, TEV cleavage, Source 15Q); not shown: His6, N-terminal, cleaved

[2] = biological target: T2, His6-Tev-DENND10, full length (pull-down prey) (human, UniProt Q8TCE6 1-357); experiment: pull-down; MBP-tagged DBD dimer (200 pmol) as bait on amylose beads, DENND10 (500 pmol) as prey; 10 mM HEPES pH 7, 150 mM NaCl, 5% glycerol, 0.05% Triton X-100, 5 mM beta-mercaptoethanol, 4 °C, 30 min; Coomassie
T2 construct: DENND10 (FAM45A), human, codon-optimised gene; source: E. coli BL21 (DE3) T1R, purified (Ni-NTA, Source 15Q, Superdex Increase 200)

[3] = biological target: B1; experiment: SEC; untagged DBD dimer and DENND10, alone and mixed; Superdex 200, 100 mM NaCl, 10 mM HEPES pH 7.0, 5% glycerol, 1 mM DTT; SDS-PAGE of fractions
[4] = biological target: T3, MBP-CCDC22 (280-446) (human, UniProt O60826 280-446); experiment: reconstitution by mixing and co-purification; amylose-purified MBP-tagged CCDC22 and CCDC93 fragments mixed about 1:1, overnight at 4 °C, then Source 15Q and Superdex 200
T3 construct: CCDC22, human, DBD; also called MBP-CCDC22 DBD; source: E. coli BL21 (DE3) T1R, purified (amylose); not shown: MBP, N-terminal, kept

T1 sequence (Q8TCE6 whole entry): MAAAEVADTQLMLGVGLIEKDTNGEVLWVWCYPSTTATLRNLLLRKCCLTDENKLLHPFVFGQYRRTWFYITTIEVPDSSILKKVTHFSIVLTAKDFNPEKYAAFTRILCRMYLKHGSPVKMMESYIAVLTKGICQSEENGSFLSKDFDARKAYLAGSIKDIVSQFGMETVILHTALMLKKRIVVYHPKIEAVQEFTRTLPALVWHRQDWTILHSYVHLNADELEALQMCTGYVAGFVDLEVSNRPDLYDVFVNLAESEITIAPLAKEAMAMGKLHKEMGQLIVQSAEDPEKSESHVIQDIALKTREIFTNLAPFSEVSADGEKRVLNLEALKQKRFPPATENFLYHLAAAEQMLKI
T2 sequence (Q8TCE6 whole entry): as above

B1: binds [1].

B2: MBP-tagged CCDC22-CCDC93 DBD dimer, CCDC93 E410R (complex, human)
chain 1: GAGAKTGAPKGSRFTHSEKFTFHLEPQAQATQVSDVPATSRRPEQVTWAAQEQELESLREQLEGVNRSIEEVEADMKTLGVSFVQAESECRHSKLSTAEREQALRLKSRAVELLPDGTANLAKLQLVVENSAQRVIHLAGQWEKHRVPLLAEYRHLRKLQDCRELES
chain 2: SPEKLGTSQLHRRKVISLNKQIAQKTKHLEELRASHTSLQARYNEAKKTLTELKTYSEKLDKEQAALEKIESKADPSILQNLRALVAMNENLKSQEQEFKAHCRERMTRLQQEIENLKAERAPRGDEKT
notes: CCDC22, human, DBD; CCDC93, human, DBD; source: E. coli BL21 (DE3) T1R, purified; not shown: MBP, N-terminal, kept
B2: binds [2].

B3: MBP-tagged CCDC22-CCDC93 DBD dimer (complex, human)
chain 1: GAGAKTGAPKGSRFTHSEKFTFHLEPQAQATQVSDVPATSRRPEQVTWAAQEQELESLREQLEGVNRSIEEVEADMKTLGVSFVQAESECRHSKLSTAEREQALRLKSRAVELLPDGTANLAKLQLVVENSAQRVIHLAGQWEKHRVPLLAEYRHLRKLQDCRELES
chain 2: SPEKLGTSQLHRRKVISLNKQIAQKTKHLEELRASHTSLQARYNEAKKTLTELKTYSEKLDKEQAALEKIESKADPSILQNLRALVAMNENLKSQEQEFKAHCREEMTRLQQEIENLKAERAPRGDEKT
notes: CCDC22, human, DBD (CC1, CC2a); CCDC93, human, DBD (CC1, CC2a); also called DBD heterodimer; source: E. coli BL21 (DE3) T1R, purified (amylose, mixed about 1:1, Source 15Q, Superdex 200); not shown: MBP, N-terminal, kept
B3: binds [2].

B4: CCDC93 DBD (305-433), untagged (domain or fragment, human, UniProt Q567U6 305-433, looked up)
chain: SPEKLGTSQLHRRKVISLNKQIAQKTKHLEELRASHTSLQARYNEAKKTLTELKTYSEKLDKEQAALEKIESKADPSILQNLRALVAMNENLKSQEQEFKAHCREEMTRLQQEIENLKAERAPRGDEKT
notes: CCDC93, human, DBD; source: E. coli BL21 (DE3) T1R, purified, MBP removed with TEV; not shown: MBP, N-terminal, cleaved
B4: binds [3]; binds [1].

B5: MBP-CCDC93 (305-433) (domain or fragment, human, UniProt Q567U6 305-433, looked up)
chain: SPEKLGTSQLHRRKVISLNKQIAQKTKHLEELRASHTSLQARYNEAKKTLTELKTYSEKLDKEQAALEKIESKADPSILQNLRALVAMNENLKSQEQEFKAHCREEMTRLQQEIENLKAERAPRGDEKT
notes: CCDC93, human, DBD; also called MBP-CCDC93 DBD; source: E. coli BL21 (DE3) T1R, purified (amylose); not shown: MBP, N-terminal, kept
B5: binds [4].
